This passage reports Kd and stoichiometry N results from publication PMC9078203.

Where two headings read alike, the source gives them in different places.

Assay [1] deals with DIP-α K81Q (D. melanogaster) (UniProt Q9W4R3). In words: SPR. (In general: SPR reads the build-up and loss of mass on a sensor chip optically.)
In assay [2] the target is DIP-β (D. melanogaster). In words: SPR.
The target in assay [3] is DIP-α K81Q G74S (D. melanogaster) (UniProt Q9W4R3). In words: SPR.
Assay [4] addresses DIP-α G74A (D. melanogaster) (UniProt Q9W4R3). The experiment in a line: SPR.
Assay [5] has as its target DIP-γ (D. melanogaster). In words: SPR.
Assay [6] has as its target DIP-α K81Q (D. melanogaster) (UniProt Q9W4R3). In words: AUC.
Assay [7] deals with DIP-α (D. melanogaster) (UniProt Q9W4R3). The experiment in a line: SPR.
For assay [8] the target is unchanged. In words: SPR. This is another data set of the same source.
Assay [9] addresses DIP-α G74A (D. melanogaster) (UniProt Q9W4R3). In words: AUC.
In assay [10] the target is DIP-α K81Q G74S (D. melanogaster) (UniProt Q9W4R3). In words: AUC.

As to “Dpr10 (from UniProt Q9VT83 1-408) (natural protein)”, the dissociation constant (Kd) in assay [1] is 31.8 µM; in [2], 33 µM; in assay [3] it was 68 µM; in assay [4] it was 0.9 µM; in assay [5], above 1000 µM.
For “DIP-α K81Q (from UniProt Q9W4R3 1-554) (natural protein)”, in assay [6], the Kd is 19.6 µM and the stoichiometry N came out at 2.
Substance “Dpr10 V144K (from UniProt Q9VT83 1-408) (natural protein)” registered a Kd in assay [7] of 11.3 µM.
Regarding “Dpr10 Q142M (from UniProt Q9VT83 1-408) (natural protein)”, the Kd in assay [7] was determined as 0.19 µM; in [4], 0.1 µM.
In assay [7], “Dpr10 V144K Q142E G99D (from UniProt Q9VT83 1-408) (natural protein)” gave a Kd of 50 µM.
As for “Dpr10 Q138D (from UniProt Q9VT83 1-408) (natural protein)”, the dissociation constant (Kd) was 27.6 µM in [7] and 27.8 µM in [8].
In assay [9], “DIP-α G74A (from UniProt Q9W4R3 1-554) (natural protein)” showed a Kd of 50 µM and a stoichiometry N of 2.
Take “DIP-α K81Q G74S (from UniProt Q9W4R3 1-554) (natural protein)”: in assay [10], the Kd is 46 µM and the stoichiometry N came out at 2.

As usually defined, the Kd is the concentration at which binding is half-saturated. Low readings indicate tighter binding, high ones weaker binding. One may read the stoichiometry N as the number of molecules, sites or subunits per partner or assembly.
